Results from patent publication US20040205843A1 (NORTH CAROLINA STATE UNIVERSITY, published 2004).

T1: Full length GST-AL1 1-352 (tomato golden mosaic virus (TGMV), UniProt P03567 1-352)
T1 sequence: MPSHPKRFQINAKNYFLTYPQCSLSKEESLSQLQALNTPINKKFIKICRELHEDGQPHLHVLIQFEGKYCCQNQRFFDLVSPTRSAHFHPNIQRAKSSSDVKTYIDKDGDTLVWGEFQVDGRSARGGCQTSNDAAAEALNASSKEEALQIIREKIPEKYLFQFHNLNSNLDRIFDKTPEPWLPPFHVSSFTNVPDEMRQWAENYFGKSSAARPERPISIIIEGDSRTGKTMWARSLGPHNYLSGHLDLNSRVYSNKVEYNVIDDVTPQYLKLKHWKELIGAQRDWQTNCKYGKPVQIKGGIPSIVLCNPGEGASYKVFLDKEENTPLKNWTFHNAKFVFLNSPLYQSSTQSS

B1: AL1 D120 (Ala14) fused to the Gal4 activation domain (pNSB871) (other)
chain: MPSHPKRFQINAKNYFLTYPQCSLSKEESLSQLQALNTPINKKFIKICRELHEDGQPHLHVLIQFEGKYCCQNQRFFDLVSPTRSAHFHPNIQRAKSSSDVKTYIDKDGDTLVWGEFQVAGRSARGGCQTSNDAAAEALNASSKEEALQIIREKIPEKYLFQFHNLNSNLDRIFDKTPEPWLPPFHVSSFTNVPDEMRQWAENYFGKSSAARPERPISIIIEGDSRTGKTMWARSLGPHNYLSGHLDLNSRVYSNKVEYNVIDDVTPQYLKLKHWKELIGAQRDWQTNCKYGKPVQIKGGIPSIVLCNPGEGASYKVFLDKEENTPLKNWTFHNAKFVFLNSPLYQSSTQSS
B2: AL1 N-DR172 (Ala9) fused to the Gal4 activation domain (pNSB762) (other)
chain: MPSHPKRFQINAKNYFLTYPQCSLSKEESLSQLQALNTPINKKFIKICRELHEDGQPHLHVLIQFEGKYCCQNQRFFDLVSPTRSAHFHPNIQRAKSSSDVKTYIDKDGDTLVWGEFQVDGRSARGGCQTSNDAAAEALNASSKEEALQIIREKIPEKYLFQFHNLNSALAAIFDKTPEPWLPPFHVSSFTNVPDEMRQWAENYFGKSSAARPERPISIIIEGDSRTGKTMWARSLGPHNYLSGHLDLNSRVYSNKVEYNVIDDVTPQYLKLKHWKELIGAQRDWQTNCKYGKPVQIKGGIPSIVLCNPGEGASYKVFLDKEENTPLKNWTFHNAKFVFLNSPLYQSSTQSS
B3: AL1 1-180 (other)
chain: MPSHPKRFQINAKNYFLTYPQCSLSKEESLSQLQALNTPINKKFIKICRELHEDGQPHLHVLIQFEGKYCCQNQRFFDLVSPTRSAHFHPNIQRAKSSSDVKTYIDKDGDTLVWGEFQVDGRSARGGCQTSNDAAAEALNASSKEEALQIIREKIPEKYLFQFHNLNSNLDRIFDKTPEP
B4: TGMV AL1, wild type, full length, untagged (other)
chain: MPSHPKRFQINAKNYFLTYPQCSLSKEESLSQLQALNTPINKKFIKICRELHEDGQPHLHVLIQFEGKYCCQNQRFFDLVSPTRSAHFHPNIQRAKSSSDVKTYIDKDGDTLVWGEFQVDGRSARGGCQTSNDAAAEALNASSKEEALQIIREKIPEKYLFQFHNLNSNLDRIFDKTPEPWLPPFHVSSFTNVPDEMRQWAENYFGKSSAARPERPISIIIEGDSRTGKTMWARSLGPHNYLSGHLDLNSRVYSNKVEYNVIDDVTPQYLKLKHWKELIGAQRDWQTNCKYGKPVQIKGGIPSIVLCNPGEGASYKVFLDKEENTPLKNWTFHNAKFVFLNSPLYQSSTQSS
notes: also called Rep; authentic AL1
B5: AL1 KEE146 (Ala5), full length, untagged (other)
chain: MPSHPKRFQINAKNYFLTYPQCSLSKEESLSQLQALNTPINKKFIKICRELHEDGQPHLHVLIQFEGKYCCQNQRFFDLVSPTRSAHFHPNIQRAKSSSDVKTYIDKDGDTLVWGEFQVDGRSARGGCQTSNDAAAEALNASSAAAALQIIREKIPEKYLFQFHNLNSNLDRIFDKTPEPWLPPFHVSSFTNVPDEMRQWAENYFGKSSAARPERPISIIIEGDSRTGKTMWARSLGPHNYLSGHLDLNSRVYSNKVEYNVIDDVTPQYLKLKHWKELIGAQRDWQTNCKYGKPVQIKGGIPSIVLCNPGEGASYKVFLDKEENTPLKNWTFHNAKFVFLNSPLYQSSTQSS
B6: AL1 N-DR172 (Ala9), full length, untagged (other)
chain: MPSHPKRFQINAKNYFLTYPQCSLSKEESLSQLQALNTPINKKFIKICRELHEDGQPHLHVLIQFEGKYCCQNQRFFDLVSPTRSAHFHPNIQRAKSSSDVKTYIDKDGDTLVWGEFQVDGRSARGGCQTSNDAAAEALNASSKEEALQIIREKIPEKYLFQFHNLNSALAAIFDKTPEPWLPPFHVSSFTNVPDEMRQWAENYFGKSSAARPERPISIIIEGDSRTGKTMWARSLGPHNYLSGHLDLNSRVYSNKVEYNVIDDVTPQYLKLKHWKELIGAQRDWQTNCKYGKPVQIKGGIPSIVLCNPGEGASYKVFLDKEENTPLKNWTFHNAKFVFLNSPLYQSSTQSS
B7: AL1 E-N140 (Ala4), full length, untagged (other)
chain: MPSHPKRFQINAKNYFLTYPQCSLSKEESLSQLQALNTPINKKFIKICRELHEDGQPHLHVLIQFEGKYCCQNQRFFDLVSPTRSAHFHPNIQRAKSSSDVKTYIDKDGDTLVWGEFQVDGRSARGGCQTSNDAAAAALAASSKEEALQIIREKIPEKYLFQFHNLNSNLDRIFDKTPEPWLPPFHVSSFTNVPDEMRQWAENYFGKSSAARPERPISIIIEGDSRTGKTMWARSLGPHNYLSGHLDLNSRVYSNKVEYNVIDDVTPQYLKLKHWKELIGAQRDWQTNCKYGKPVQIKGGIPSIVLCNPGEGASYKVFLDKEENTPLKNWTFHNAKFVFLNSPLYQSSTQSS
B8: AL1 K-E179 (Ala10), full length, untagged (other)
chain: MPSHPKRFQINAKNYFLTYPQCSLSKEESLSQLQALNTPINKKFIKICRELHEDGQPHLHVLIQFEGKYCCQNQRFFDLVSPTRSAHFHPNIQRAKSSSDVKTYIDKDGDTLVWGEFQVDGRSARGGCQTSNDAAAEALNASSKEEALQIIREKIPEKYLFQFHNLNSNLDRIFDATPAPWLPPFHVSSFTNVPDEMRQWAENYFGKSSAARPERPISIIIEGDSRTGKTMWARSLGPHNYLSGHLDLNSRVYSNKVEYNVIDDVTPQYLKLKHWKELIGAQRDWQTNCKYGKPVQIKGGIPSIVLCNPGEGASYKVFLDKEENTPLKNWTFHNAKFVFLNSPLYQSSTQSS
B9: AL1 REK154 (Ala6), full length, untagged (other)
chain: MPSHPKRFQINAKNYFLTYPQCSLSKEESLSQLQALNTPINKKFIKICRELHEDGQPHLHVLIQFEGKYCCQNQRFFDLVSPTRSAHFHPNIQRAKSSSDVKTYIDKDGDTLVWGEFQVDGRSARGGCQTSNDAAAEALNASSKEEALQIIAAAIPEKYLFQFHNLNSNLDRIFDKTPEPWLPPFHVSSFTNVPDEMRQWAENYFGKSSAARPERPISIIIEGDSRTGKTMWARSLGPHNYLSGHLDLNSRVYSNKVEYNVIDDVTPQYLKLKHWKELIGAQRDWQTNCKYGKPVQIKGGIPSIVLCNPGEGASYKVFLDKEENTPLKNWTFHNAKFVFLNSPLYQSSTQSS
B10: AL1 Q-HN165 (Ala8), full length, untagged (other)
chain: MPSHPKRFQINAKNYFLTYPQCSLSKEESLSQLQALNTPINKKFIKICRELHEDGQPHLHVLIQFEGKYCCQNQRFFDLVSPTRSAHFHPNIQRAKSSSDVKTYIDKDGDTLVWGEFQVDGRSARGGCQTSNDAAAEALNASSKEEALQIIREKIPEKYLFAFAALNSNLDRIFDKTPEPWLPPFHVSSFTNVPDEMRQWAENYFGKSSAARPERPISIIIEGDSRTGKTMWARSLGPHNYLSGHLDLNSRVYSNKVEYNVIDDVTPQYLKLKHWKELIGAQRDWQTNCKYGKPVQIKGGIPSIVLCNPGEGASYKVFLDKEENTPLKNWTFHNAKFVFLNSPLYQSSTQSS
B11: AL1 147-352 (other)
chain: ALQIIREKIPEKYLFQFHNLNSNLDRIFDKTPEPWLPPFHVSSFTNVPDEMRQWAENYFGKSSAARPERPISIIIEGDSRTGKTMWARSLGPHNYLSGHLDLNSRVYSNKVEYNVIDDVTPQYLKLKHWKELIGAQRDWQTNCKYGKPVQIKGGIPSIVLCNPGEGASYKVFLDKEENTPLKNWTFHNAKFVFLNSPLYQSSTQSS
B12: AL1 134-352 (other)
chain: AAAEALNASSKEEALQIIREKIPEKYLFQFHNLNSNLDRIFDKTPEPWLPPFHVSSFTNVPDEMRQWAENYFGKSSAARPERPISIIIEGDSRTGKTMWARSLGPHNYLSGHLDLNSRVYSNKVEYNVIDDVTPQYLKLKHWKELIGAQRDWQTNCKYGKPVQIKGGIPSIVLCNPGEGASYKVFLDKEENTPLKNWTFHNAKFVFLNSPLYQSSTQSS

The binders below were run against Wild type TGMV AL1 fused to the Gal4 DNA binding domain (pNSB736) (tomato golden mosaic virus (TGMV)) (assay: not given).

**Q.** For B1, which “oligomer. (oligomerization activity relative to wild type)” value is on record?
**A.** 67 relative to wild type (100)

**Q.** For B2, which “oligomer. (oligomerization activity relative to wild type)” value is on record?
**A.** 31 relative to wild type (100)

Each binder was assayed against T1, Full length GST-AL1 1-352 (assay: GST co-purification from insect cells, immunoblot).

**Q.** Does B3 bind?
**A.** binds

**Q.** Does B4 bind?
**A.** binds

**Q.** Does B5 bind?
**A.** binds

**Q.** Does B6 bind?
**A.** binds

**Q.** Does B7 bind?
**A.** binds

**Q.** Does B8 bind?
**A.** binds

**Q.** Does B9 bind?
**A.** binds

**Q.** Does B10 bind?
**A.** binds

**Q.** Does B11 bind?
**A.** binds

**Q.** Does B12 bind?
**A.** binds
